{"source": "patent EP3916006A1", "key": {"GPR93": {"molecular_target": "GPR93 (UniProt Q149R9)", "sequence (Q149R9 whole entry)": "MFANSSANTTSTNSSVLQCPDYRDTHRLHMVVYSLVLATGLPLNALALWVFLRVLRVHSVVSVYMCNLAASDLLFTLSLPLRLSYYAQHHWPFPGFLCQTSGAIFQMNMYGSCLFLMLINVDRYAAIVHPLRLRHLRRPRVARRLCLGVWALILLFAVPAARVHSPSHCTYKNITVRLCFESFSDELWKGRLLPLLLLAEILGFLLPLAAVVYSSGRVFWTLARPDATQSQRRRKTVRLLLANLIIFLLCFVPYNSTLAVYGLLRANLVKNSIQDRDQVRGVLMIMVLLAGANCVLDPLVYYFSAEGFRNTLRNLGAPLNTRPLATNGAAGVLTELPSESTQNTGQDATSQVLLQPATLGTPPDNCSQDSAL", "experiment": "cell-based or functional assay"}, "calcium sensing receptor": {"molecular_target": "calcium sensing receptor (UniProt Q9QY96)", "sequence (Q9QY96 20-1079 limits assumed)": "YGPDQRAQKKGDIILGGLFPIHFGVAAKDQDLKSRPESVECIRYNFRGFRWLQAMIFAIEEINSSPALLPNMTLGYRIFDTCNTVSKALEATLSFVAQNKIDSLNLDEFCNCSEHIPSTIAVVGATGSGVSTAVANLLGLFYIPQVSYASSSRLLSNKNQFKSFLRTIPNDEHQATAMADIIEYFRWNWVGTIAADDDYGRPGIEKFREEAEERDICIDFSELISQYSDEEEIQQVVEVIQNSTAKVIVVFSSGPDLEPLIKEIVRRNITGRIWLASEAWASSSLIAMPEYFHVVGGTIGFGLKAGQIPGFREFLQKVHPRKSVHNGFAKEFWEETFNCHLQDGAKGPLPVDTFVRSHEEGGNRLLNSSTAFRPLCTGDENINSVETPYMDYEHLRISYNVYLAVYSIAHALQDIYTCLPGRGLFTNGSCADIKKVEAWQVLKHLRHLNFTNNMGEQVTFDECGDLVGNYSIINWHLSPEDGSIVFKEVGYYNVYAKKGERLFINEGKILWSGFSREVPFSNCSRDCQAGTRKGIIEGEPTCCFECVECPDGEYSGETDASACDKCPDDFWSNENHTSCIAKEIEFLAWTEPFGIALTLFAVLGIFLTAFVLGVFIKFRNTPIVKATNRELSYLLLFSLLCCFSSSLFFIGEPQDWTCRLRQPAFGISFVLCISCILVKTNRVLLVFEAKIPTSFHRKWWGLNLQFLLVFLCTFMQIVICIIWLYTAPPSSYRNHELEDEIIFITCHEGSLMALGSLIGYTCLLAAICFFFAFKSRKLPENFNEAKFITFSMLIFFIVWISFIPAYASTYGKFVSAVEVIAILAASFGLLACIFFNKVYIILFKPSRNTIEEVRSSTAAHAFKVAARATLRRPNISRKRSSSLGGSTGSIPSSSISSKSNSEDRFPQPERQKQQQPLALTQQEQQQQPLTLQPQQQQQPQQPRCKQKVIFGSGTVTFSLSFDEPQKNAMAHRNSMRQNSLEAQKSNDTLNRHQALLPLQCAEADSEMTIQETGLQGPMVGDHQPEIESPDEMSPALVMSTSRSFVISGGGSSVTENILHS", "experiment": "cell-based or functional assay"}}, "data": [{"substance": "synthetic peptide SEQ ID NO: 5 90RYLGYLE96, derived from αs1-casein", "values": [{"measurement": "CCK secretion by STC-1 cells (ELISA), peptide at 0.125 mM with TC LPA5 4 at 4 µM (198 pM with vehicle)", "setting": "GPR93", "value": 111, "unit": "pM"}, {"measurement": "CCK secretion by STC-1 cells (ELISA), peptide at 0.125 mM with NPS2143 at 6 µM (198 pM with vehicle)", "setting": "calcium sensing receptor", "value": 88, "unit": "pM"}]}]}
